Where two headings read alike, the source gives them in different places. Each block holds one compound with its values, some of them ahead of it.
Assays:
CCK2R [1] = biological target: T1, CCK2R (Homo sapiens, UniProt P32239); experiment: Competitive binding (FACS) on CCK2R-transfected HEK 293T cells with Cy5-labeled F11N derivative; conditions: HEK 293T transfected, Cy5-labeled F11N derivative competitive ligand (Table 4); read-out: CCK2R IC50
T1 construct: expressed in transfected cells; host or cells: HEK 293T cells
T1 sequence (P32239 1-447): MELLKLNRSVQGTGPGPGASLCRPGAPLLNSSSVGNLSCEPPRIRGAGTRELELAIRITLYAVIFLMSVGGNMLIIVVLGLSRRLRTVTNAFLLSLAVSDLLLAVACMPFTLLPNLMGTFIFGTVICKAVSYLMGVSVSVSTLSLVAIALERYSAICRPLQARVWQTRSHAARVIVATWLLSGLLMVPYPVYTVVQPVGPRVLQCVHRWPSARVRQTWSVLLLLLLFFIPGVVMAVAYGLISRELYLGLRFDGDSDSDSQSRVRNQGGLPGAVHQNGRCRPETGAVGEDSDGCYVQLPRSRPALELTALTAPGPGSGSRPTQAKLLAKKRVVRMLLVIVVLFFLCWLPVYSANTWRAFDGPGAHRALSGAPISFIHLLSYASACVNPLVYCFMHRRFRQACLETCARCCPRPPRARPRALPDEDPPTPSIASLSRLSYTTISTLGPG
Procedure: Binding Affinity Tested by Using Cy5-Labled Competitive Ligands.
HEK 293T cells were transfected with SSTR2 or CCK2R-expressing plasmid by Lipofectamine 2000 reagent. 24 hours after transfection, cells were harvested and suspended with assay buffer (1% OVA in DMEM). […] The testing compound was further supplemented into the wells at different concentrations. After incubation for 1 hour at dark, cells were washed and suspended in FACS buffer (1% OVA in DPBS).

SSTR2 = biological target: T2, SSTR2 (Rattus norvegicus, UniProt P30680); experiment: Competitive cell-binding assay on AR42J cells with 125I-C1 as competitive ligand
T2 construct: host or cells: AR42J cells
T2 sequence (P30680 whole entry): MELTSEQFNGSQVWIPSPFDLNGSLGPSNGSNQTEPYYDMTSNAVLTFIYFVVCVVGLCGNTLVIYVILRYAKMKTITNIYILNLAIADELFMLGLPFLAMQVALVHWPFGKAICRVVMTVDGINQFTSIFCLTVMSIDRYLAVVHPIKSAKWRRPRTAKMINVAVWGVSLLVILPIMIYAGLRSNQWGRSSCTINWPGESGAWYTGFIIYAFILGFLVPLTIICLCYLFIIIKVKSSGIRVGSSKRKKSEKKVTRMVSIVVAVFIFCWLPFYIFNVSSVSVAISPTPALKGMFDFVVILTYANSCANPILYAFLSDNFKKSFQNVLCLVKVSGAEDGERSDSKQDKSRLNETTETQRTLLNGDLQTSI
How it was run: (§1)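 Rat AR42J cells (1~3×10^6 cells/mL) in RPMI-1640 with 0.25% BSA incubated with 125I-C1 or 125I-C3 (0.02 μCi/well) plus test compound (0-10000 nM) for 1 h at 37° C., n=3. Unbound ligand removed by filtration; bound radioactivity γ-counted; IC50 by nonlinear regression.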

CCK2R [2] = biological target: T3, CCK2R (Rattus norvegicus, UniProt P30553); experiment: Competitive cell-binding assay on AR42J cells with 125I-C3 as competitive ligand
T3 construct: host or cells: AR42J cells
T3 sequence (P30553 1-452): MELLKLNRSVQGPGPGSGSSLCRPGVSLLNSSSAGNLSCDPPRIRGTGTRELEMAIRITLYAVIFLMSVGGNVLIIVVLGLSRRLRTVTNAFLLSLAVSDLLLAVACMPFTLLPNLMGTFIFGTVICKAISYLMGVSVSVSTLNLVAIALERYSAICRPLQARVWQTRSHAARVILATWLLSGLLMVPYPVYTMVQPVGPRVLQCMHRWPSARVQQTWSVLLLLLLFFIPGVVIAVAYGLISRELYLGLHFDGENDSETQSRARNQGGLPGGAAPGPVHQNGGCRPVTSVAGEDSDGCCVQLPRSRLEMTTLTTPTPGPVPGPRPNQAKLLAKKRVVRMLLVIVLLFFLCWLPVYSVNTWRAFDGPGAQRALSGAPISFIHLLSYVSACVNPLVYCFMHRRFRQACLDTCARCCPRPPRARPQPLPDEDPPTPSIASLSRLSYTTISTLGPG
How it was run: as §1

[3] = Biodistribution study of 177Lu-labeled compounds in AR42J tumor-bearing mice; conditions: BALB/c nude, mouse, in vivo, iv, total radioactivity
How it was run: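 Compounds labelled with ^177Lu in 0.5 M NaOAc pH 4.5 at 95° C for 15 min, then used directly or diluted in PBS with 3 mg/mL ascorbate. BALB/c nude mice bore subcutaneous AR42J flank xenografts (0.05-0.50 g). Organs excised at 4, 24 and 72 h post-injection and γ-counted for % ID and % ID/g.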

Compound: CCCC[C@H](NC(=O)[C@H](Cc1c[nH]c2ccccc12)NC(=O)CNC(=O)[C@H](Cc1ccc(O)cc1)NC(=O)[C@H](C)NC(=O)[C@@H](CCC(=O)O)NC(=O)[C@@H](CCC(=O)O)NC(=O)[C@@H](CCC(=O)O)NC(=O)[C@@H](CCC(=O)O)NC(=O)[C@@H](CCC(=O)O)NC(=O)[C@@H](CCC(=O)O)NC(=O)CN1CCN(CC(=O)O)CCN(CC(=O)O)CCN(CC(=O)O)CC1)C(=O)N[C@@H](CC(=O)O)C(=O)N[C@@H](Cc1ccccc1)C(N)=O [Compound C5, DOTA-e-e-e-e-e-e-Ala-Tyr-Gly-Trp-Nle-Asp-Phe-NH2, reference compound]
IC50 (CCK2R [1]): 25.7 nM

Compound: C[C@@H](O)[C@H](NC(=O)[C@@H]1CSSC[C@H](NC(=O)[C@@H](Cc2ccccc2)NC(=O)[C@H](CCCCNC(=O)COCCOCCNC(=O)c2cccc(NC(=O)N[C@@H]3CN(C4CCCCC4)c4ccccc4N(CC(=O)C(C)(C)C)C3=O)c2)NC(=O)CN2CCN(CC(=O)O)CCN(CC(=O)O)CCN(CC(=O)O)CC2)C(=O)N[C@@H](Cc2ccc(O)cc2)C(=O)N[C@H](Cc2c[nH]c3ccccc23)C(=O)N[C@@H](CCCCN)C(=O)N[C@@H]([C@@H](C)O)C(=O)N1)C(=O)O [Compound I-36, DOTA-K(-OEG-Z360)-f[CYwKTC]T-OH]
IC50 (SSTR2): 1.6 nM
Relative Binding Affinity SSTR2 (SSTR2): 1.76
IC50 (CCK2R [2]): 4.2 nM
Relative Binding Affinity CCK2R (CCK2R [2]): 4.0
tissue to tissue ratio at 24 h ([3]; T/K Tumor/Kidney ratio, 177Lu-labeled, 24 hours after dosing): 2.9
tissue to tissue ratio at 24 h ([3]; T/L Tumor/Liver ratio, 177Lu-labeled, 24 hours after dosing): 4.3
tissue to tissue ratio at 24 h ([3]; T/P Tumor/Pancreas ratio, 177Lu-labeled, 24 hours after dosing): 13
tissue to tissue ratio at 24 h ([3]; T/Sp Tumor/Spleen ratio, 177Lu-labeled, 24 hours after dosing): 36
tissue to tissue ratio at 24 h ([3]; T/St Tumor/Stomach ratio, 177Lu-labeled, 24 hours after dosing): 11
tissue uptake at 24 h ([3]; uptake Kidney, 177Lu-labeled, 24 hours after dosing (Table 5)): 7.4 %ID/g
tissue uptake at 24 h ([3]; uptake Liver, 177Lu-labeled, 24 hours after dosing (Table 5)): 5 %ID/g
tissue uptake at 24 h ([3]; uptake Pancreas, 177Lu-labeled, 24 hours after dosing (Table 5)): 1.6 %ID/g
tissue uptake at 24 h ([3]; uptake Spleen, 177Lu-labeled, 24 hours after dosing (Table 5)): 0.6 %ID/g
tissue uptake at 24 h ([3]; uptake Stomach, 177Lu-labeled, 24 hours after dosing (Table 5)): 2 %ID/g
tissue uptake at 24 h ([3]; uptake Tumor, 177Lu-labeled, 24 hours after dosing (Table 5)): 21.6 %ID/g

Compound: C[C@@H](O)[C@H](NC(=O)[C@@H]1CSSC[C@H](NC(=O)[C@@H](Cc2ccccc2)NC(=O)[C@H](CCCCNC(=O)COCCOCCNC(=O)COCCOCCNC(=O)c2cccc(NC(=O)N[C@@H]3CN(C4CCCCC4)c4ccccc4N(CC(=O)C(C)(C)C)C3=O)c2)NC(=O)CN2CCN(CC(=O)O)CCN(CC(=O)O)CCN(CC(=O)O)CC2)C(=O)N[C@@H](Cc2ccc(O)cc2)C(=O)N[C@H](Cc2c[nH]c3ccccc23)C(=O)N[C@@H](CCCCN)C(=O)N[C@@H]([C@@H](C)O)C(=O)N1)C(=O)O [Compound I-42, DOTA-K(-OEG-OEG-Z360)-f]CYwKTC]T-OH]
Relative Binding Affinity SSTR2 (SSTR2; based on mean IC50, C-1 = 1.00): 0.54
Relative Binding Affinity CCK2R (CCK2R [2]; based on mean IC50, C-2 = 1.00): 115
tissue to tissue ratio at 24 h ([3]; T/K Tumor/Kidney ratio): 1.1
tissue to tissue ratio at 24 h ([3]; T/L Tumor/Liver ratio): 3.3
tissue to tissue ratio at 24 h ([3]; T/P Tumor/Pancreas ratio): 12
tissue to tissue ratio at 24 h ([3]; T/Sp Tumor/Spleen ratio): 62
tissue to tissue ratio at 24 h ([3]; T/St Tumor/Stomach ratio): 8.8
tissue uptake at 24 h ([3]; uptake Kidney): 17.8 %ID/g
tissue uptake at 24 h ([3]; uptake Liver): 5.6 %ID/g
tissue uptake at 24 h ([3]; uptake Pancreas): 1.6 %ID/g
tissue uptake at 24 h ([3]; uptake Spleen): 0.3 %ID/g
tissue uptake at 24 h ([3]; uptake Stomach): 2.1 %ID/g
tissue uptake at 24 h ([3]; uptake Tumor): 18.7 %ID/g

Further lines, with some results ahead:

IC50 (SSTR2; AR42J cells, 125I-C1 competitive ligand, 37° C. 1 h, read-out: SSTR2/IC50): 0.367 nM
Relative Binding Affinity SSTR2 (SSTR2; based on mean IC50, C-1 = 1.00): 7.67
IC50 (CCK2R [2]; AR42J cells, 125I-C3 competitive ligand, 37° C. 1 h, read-out: CCK2R/IC50): 4.9 nM
Relative Binding Affinity CCK2R (CCK2R [2]; based on mean IC50, C-2 = 1.00): 3.4
Compound: C[C@@H](O)[C@H](NC(=O)[C@@H]1CSSC[C@H](NC(=O)[C@@H](Cc2ccccc2)NC(=O)COCCOCCNC(=O)COCCOCCNC(=O)[C@H](CCCCNC(=O)c2cccc(NC(=O)N[C@@H]3CN(C4CCCCC4)c4ccccc4N(CC(=O)C(C)(C)C)C3=O)c2)NC(=O)CN2CCN(CC(=O)O)CCN(CC(=O)O)CCN(CC(=O)O)CC2)C(=O)N[C@@H](Cc2ccc(O)cc2)C(=O)N[C@H](Cc2c[nH]c3ccccc23)C(=O)N[C@@H](CCCCN)C(=O)N[C@@H]([C@@H](C)O)C(=O)N1)C(=O)O [Compound I-39, DOTA-K(Z360)-OEG-OEG-f[CYwKTC]T-OH]
tissue to tissue ratio at 24 h ([3]; T/K Tumor/Kidney ratio): 2.3
tissue to tissue ratio at 24 h ([3]; T/L Tumor/Liver ratio): 9.9
tissue to tissue ratio at 24 h ([3]; T/P Tumor/Pancreas ratio): 29
tissue to tissue ratio at 24 h ([3]; T/Sp Tumor/Spleen ratio): 89
tissue to tissue ratio at 24 h ([3]; T/St Tumor/Stomach ratio): 5.9
tissue uptake at 24 h ([3]; uptake Kidney): 12 %ID/g
tissue uptake at 24 h ([3]; uptake Liver): 2.78 %ID/g
tissue uptake at 24 h ([3]; uptake Pancreas): 0.94 %ID/g
tissue uptake at 24 h ([3]; uptake Spleen): 0.31 %ID/g
tissue uptake at 24 h ([3]; uptake Stomach): 4.63 %ID/g
tissue uptake at 24 h ([3]; uptake Tumor): 27.5 %ID/g

IC50 (CCK2R [1]): 5.53 nM
Compound: C[C@@H](O)[C@H](NC(=O)[C@@H]1CSSC[C@H](NC(=O)[C@@H](Cc2ccccc2)NC(=O)CCCCCNC(=O)CCCCCNC(=O)[C@H](CCCCNC(=O)[C@H](CCC(=O)O)NC(=O)c2cccc(NC(=O)N[C@@H]3CN(C4CCCCC4)c4ccccc4N(CC(=O)C(C)(C)C)C3=O)c2)NC(=O)CCC(C(=O)O)N2CCN(CC(=O)O)CCN(CC(=O)O)CCN(CC(=O)O)CC2)C(=O)N[C@@H](Cc2ccc(O)cc2)C(=O)N[C@H](Cc2c[nH]c3ccccc23)C(=O)N[C@@H](CCCCN)C(=O)N[C@@H]([C@@H](C)O)C(=O)N1)C(=O)O (stereo partly shown) [Compound I-72, DOTAGA- K(-Glu- Z360)- Ahx- Ahx- f[CYwKTC]T- OH]

IC50 (CCK2R [1]): 56.7 nM
Compound: C[C@@H](O)[C@H](NC(=O)[C@@H]1CSSC[C@H](NC(=O)[C@@H](Cc2ccccc2)NC(=O)COCCOCCNC(=O)COCCOCCNC(=O)CC[C@H](NC(=O)[C@H](CCCCNC(=O)c2cccc(NC(=O)CC3CN(C4CCCCC4)c4ccccc4N(CC(=O)C(C)(C)C)C3=O)c2)NC(=O)CN2CCN(CC(=O)O)CCN(CC(=O)O)CCN(CC(=O)O)CC2)C(=O)O)C(=O)N[C@@H](Cc2ccc(O)cc2)C(=O)N[C@H](Cc2c[nH]c3ccccc23)C(=O)N[C@@H](CCCCN)C(=O)N[C@@H]([C@@H](C)O)C(=O)N1)C(=O)O (stereo partly shown) [Compound I-74, DOTA-K(Z360)-gGlu-OEG-OEG-f]CYwKTC]T-OH]

From US20260248972A1, “DUAL RECEPTOR TARGETING RADIOLIGANDS AND USES THEREOF RELATED APPLICATIONS” (priority 2022, published 2026)
